{
  "source": "patent US20220105179A1",
  "about": "(published 2022)",
  "binders": {"B1": {"name": "hFcεRIα (receptor)", "chain": "VPQKPKVSLNPPWNRIFKGENVTLTCNGNNFFEVSSTKWFHNGSLSEETNSSLNIVNAKFEDSGEYKCQHQQVNESEPVYLEVFSDWLLLQASAEVVMEGQPLFLRCHGWRNWDVYKVIYYKDGEALKYWYENHNISITNATVEDSGTYYCTGKVWQLDYESEPLNITVIKAPREKYWLQ"}},
  "biological_target": "NEUFcε (Arthrobacter urefaciens;mouse, UniProt P06336 99-421)",
  "assay": "BLI",
  "data": [
    {"binder": "B1", "values": [
      {"measurement": "Kd", "value": "< 1", "unit": "pM"}
    ]}
  ]
}
